These results are taken from paper PMC11070302 (Drug resistance updates : reviews and commentaries in …, 2024).

This data set deals with the molecule itself. As to the kind of experiment: non-reducing SDS-PAGE and protein staining.

B1: PEPD^G278D, a recombinant and enzymatically inactive mutant of human peptidase D (enzyme, UniProt P12955 1-493, looked up)
chain: MAAATGPSFWLGNETLKVPLALFALNRQRLCERLRKNPAVQAGSIVVLQGGEETQRYCTDTGVLFRQESFFHWAFGVTEPGCYGVIDVDTGKSTLFVPRLPASHATWMGKIHSKEHFKEKYAVDDVQYVDEIASVLTSQKPSVLLTLRGVNTDSGSVCREASFDGISKFEVNNTILHPEIVECRVFKTDMELEVLRYTNKISSEAHREVMKAVKVGMKEYELESLFEHYCYSRGGMRHSSYTCICGSGENSAVLHYGHAGAPNDRTIQNGDMCLFDMDGEYYCFASDITCSFPANGKFTADQKAVYEAVLRSSRAVMGAMKPGVWWPDMHRLADRIHLEELAHMGILSGSVDAMVQAHLGAVFMPHGLGHFLGIDVHDVGGYPEGVERIDEPGLRSLRTARHLQPGMVLTVEPGIYFIDHLLDEALADPARASFLNREVLQRFRGFGGVRIEEDVVVTDSGIELLTCVPRTVEEIEACMAGCDKAFTPFSGPK
Take B1: the “stoichiometry N” value was found to be 2.

For orientation: stoichiometry N means a count of units in the complex or per binding partner.
